Experimental data as given in US20220218834A1, “APOHEMOGLOBIN-HAPTOGLOBIN COMPLEXES AND METHODS OF USING THEREOF” (OHIO STATE INNOVATION FOUNDATION, priority 2019, published 2022).
Where “and” joins values, the source holds several entries; their conditions need not be identical. Identical values can stand only once. Marks after values point to notes of the source that are not given here.

How the values were obtained:
[1] = O2 equilibrium binding curves of rHb and native Hb (Hemox analyzer); assay type: biochemical; settings: 37° C.; for P50: O2 affinity; for N (cooperativity coefficient n): O2 equilibrium
Method: rHb Analysis. Various liganded forms of rHb were analyzed via UV-Vis spectroscopy and compared against native Hb. The oxy-rHb and oxyHb equilibrium binding curves were measured using a Hemox analyzer (TCS Scientific Corp., New Hope, Pa.) at 37° C. The spectra of rHb was measured after one day reaction with excess heme (stage 1), after reduction and diafiltration with the modified HEMOX buffer (stage 2), after placing the rHb mixture under a CO atmosphere (stage 3), after heating the CO-rHb mixture and removing precipitate (stage 4), and after re-oxygenating the rHb sample (stage 5). Spectral deconvolution software was developed in the Python programming language (Python Software Foundation Beaverton, Oreg.) using the non-linear least squares function curve_fit of the SciPy package to determine the fraction of various liganded forms of rHb that contribute to the final spectra of the rHb mixture (i.e. containing metHb, hemichrome, oxyHb, HbCO and heme).

[2] = Specificity of Al-PC binding to proteins (UV-visible absorbance at 680 nm); settings: absorbance at 680 nm after Al-PC addition in PBS
Method: The stock Al-PC solution was diluted 100× into 100% EtOH.
The concentrations of Hp, HSA, Hb and rHb in solution were 1.0 mg/mL, 0.35 mg/ml (and 3.5 mg/ml), 0.35 mg/mL, and 0.33 mg/mL respectively.

[3] = ApoHb stability during storage (DCNh activity assay, total protein, RP-HPLC); assay type: physicochemical; settings: for effect of time on apoHb activity or total protein: stored at −80° C.
Method: The extinction coefficients of DCNh and rHbCN were 85 mM^−1 cm^−1 and 114 mM^−1 cm^−1, respectively.
Three TFF-apoHb batches were prepared. […] These groups consisted of unconcentrated, concentrated and lyophilized apoHb. […] The remainder of the batch was either sent to be lyophilized or to be concentrated to […]. […] The lyophilized powder was stored in a closed container at −80° C. […] These time intervals were chosen to capture relevant changes in activity at each storage condition. […] Thus, after initial measurements on a weekly basis, the insignificant changes lead to longer intervals between measurements. Statistical analysis was performed on JMP Pro v 12.2.2 (SAS Institute, Cary, N.C.) and measured concentrations were compared to the initial time point values of each batch. A linear fit with the logarithmic value of the concentration was used to examine the effect of time with the ANOVA test. For time point differences, time was considered as discrete and the TUKEY HSD test was performed.
Reverse Phase Chromatography. Reverse phase (RP) chromatography was performed with a BioBasic-18 column (Thermo Scientific, Waltham, Mass.) on a Thermo Scientific Dionex Ultimate UHPLC system. The flow rate of the mobile phase was set to 0.75 mL/min. The column was equilibrated with 35% acetonitrile and 65% TFA (0.5 wt %, pH 2.6) for 10 minutes. The gradient was then shifted to 43% acetonitrile over a 1 minute interval. The protein was eluted with an increasing linear gradient of 43 to 47% acetonitrile for 30 minutes. The column was then held at 47% acetonitrile for 20 minutes.

acellular human Hb = target: T1, acellular human Hb (Homo sapiens, UniProt P68871+P69905); assay: Vascular response to acellular Hb after pretreatment, hamster dorsal window chamber; assay type: in vivo, Golden Syrian Hamsters
T1 construct: Expired units of human red blood cells were generously donated; from tissue; host or cells: expired human red blood cell units; purified in house by tangential flow filtration
Method: Studies were performed in 55-65 g male Golden Syrian Hamsters (Charles River Laboratories, Boston, Mass.) fitted with a dorsal window chamber. The hamster window chamber model is widely used for microvascular studies without anesthesia. The complete surgical technique has been described previously. Two days after window implantation, arterial and venous catheters filled with heparinized saline solution (30 IU/mL) were implanted into the carotid and jugular vessels. Catheters were tunneled under the skin, exteriorized at the dorsal side of the neck, and securely attached to the window frame.
The unanesthetized animal was placed in a restraining tube with a longitudinal slit from which the window chamber protruded, then fixed to the microscopic stage for transillumination with the intravital microscope (BX51WI, Olympus, Japan). Animals were given 20 minutes to adjust to the tube environment and images were obtained using a CCD camera (4815, COHU, San Diego, Calif.). […]
The MAP and HR were monitored continuously (MP150, Biopac System Inc., Santa Barbara, Calif.). Hct was measured from centrifuged arterial blood samples taken in heparinized capillary tubes. Hb content was determined spectrophotometrically (B-Hemoglobin, Hemocue, Stockholm, Sweden). Arterial blood was collected in heparinized glass capillaries (50 μL) and immediately analyzed for pO2, pCO2, and pH (ABL90; Radiometer America, Brea, Calif.). Arterial Hb saturation was measured using an IL482 CO-Oximeter (Instrumentation Laboratory, Lexington, Mass.).
Arteriolar and venular blood flow velocities were measured using the photodiode cross-correlation method (Photo-Diode/Velocity, Vista Electronics, San Diego, Calif.). The measured centerline velocity (V) was corrected according to blood vessel size to obtain the mean RBC velocity. […] Blood flow (Q) was calculated from the measured values as Q=π/4D^2 V.
Functional capillaries, defined as capillary segments that have transit of at least one RBC in a 60 second period in 10 successive microscopic fields, were assessed in a region of 0.46 mm^2. […]

PolyHb = target: T2, PolyHb (Homo sapiens, UniProt P68871+P69905); assay: 20% isovolemic exchange transfusion of PolyHb after pretreatment, hamster window chamber; assay type: in vivo, Golden Syrian Hamsters
T2 construct: from tissue; host or cells: human red blood cells; Hb purified and polymerised in house
Method: Additionally, animals with signs of low perfusion, inflammation, edema, or bleeding in their microvasculature were excluded from the study. Prior to treatment, baseline systemic parameters and microvascular hemodynamics were assessed. […] 20 minutes following the initial treatment, the systemic parameters and microvascular hemodynamics were assessed. Afterward, the animals underwent a 20 percent isovolemic exchange transfusion with a 10 g/dL PolyHb solution. After another 20 minutes, the systemic parameters and microvascular hemodynamics were measured. Mean arterial pressure (MAP) and heart rate (HR) were monitored continuously (MP150, Biopac System Inc., Santa Barbara, Calif.). The sample size of 5 animals per group was calculated based on an expected 10% difference in mean arterial pressure between groups, an α=0.05, and […], and equal enrollment for all groups. Additionally, microhemodynamic measurements contain data from multiple vessels within the field (5-7 arterioles and venules selected at baseline based on visual clarity), improving the power of these measurements. Each experiment is a repeated measures study, so all experimental timepoints are replicated between all animals and groups. Furthermore, each experimental group contains animals from different litters, improving the replication of these studies. Animals were randomly assigned to their respective group before baseline measurements were taken. Each group contains animals from multiple litters of hamsters to improve randomization. Investigators were not blinded to group allocation during data collection or analysis. Blinding is not possible with these solutions as they have distinct colors. Measurements taken are highly quantitative, so blinding should have little impact.
The unanesthetized animal was placed in a restraining tube with a longitudinal slit from which the window chamber protruded, then fixed to the microscopic stage for transillumination with the intravital microscope (BX51WI, Olympus, New Hyde Park, N.Y.). […] Measurements were carried out using a 40× (LUMPFL-WIR, numerical aperture 0.8, Olympus) water immersion objective.
Arteriolar and venular blood flow velocities were measured using the photodiode cross-correlation method (Photo-Diode/Velocity, Vista Electronics, San Diego, Calif.). The measured centerline velocity (V) was corrected according to blood vessel size to obtain the mean RBC velocity. A video image-shearing method was used to measure blood vessel diameter (D). Blood flow (Q) was calculated from the measured values as
Functional capillaries, defined as capillary segments that have RBC transit of at least one RBC in a 60 second period in 10 successive microscopic fields, were assessed in a region of 0.46 mm^2. FCD (mm^−1) is calculated as the total length of RBC perfused capillaries divided by the area (0.46 mm^2).

β-thalassemic mice = settings: cited from earlier work

T1 sequence (P69905 2-142 limits assumed): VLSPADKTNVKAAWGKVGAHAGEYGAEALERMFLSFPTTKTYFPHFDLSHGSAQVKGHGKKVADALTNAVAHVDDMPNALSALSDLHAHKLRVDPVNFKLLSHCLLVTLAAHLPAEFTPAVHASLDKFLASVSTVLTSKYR
T1 sequence (P68871 2-147 limits assumed): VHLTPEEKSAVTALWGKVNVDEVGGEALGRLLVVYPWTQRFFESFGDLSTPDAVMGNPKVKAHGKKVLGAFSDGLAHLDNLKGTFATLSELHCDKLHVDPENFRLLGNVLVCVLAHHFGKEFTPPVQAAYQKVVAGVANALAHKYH
T2 sequence (P69905 2-142 limits assumed): as the sequence (P69905 2-142 limits assumed) above
T2 sequence (P68871 2-147 limits assumed): as the sequence (P68871 2-147 limits assumed) above

With “TFF rHb Concentrated: reconstituted Hb made from concentrated TFF-apoHb” the P50 [1] was 11.36 ± 0.87 mm Hg, the P50 ([1]; listed as concentrated rHb) was 11.36±0.87 mm Hg and the “N (cooperativity coefficient n)” value [1] was 2.14 ± 0.17^a. The “N (cooperativity coefficient n)” value ([1]; listed as concentrated rHb) was 2.14±0.17.

For “TFF rHb: reconstituted Hb made from TFF-apoHb and heme”, the P50 [1] was 11.52±0.02 mm Hg and 11.20 ± 0.43 mm Hg, the P50 ([1]; listed as unconcentrated rHb) was 11.20±0.43 mm Hg and the “N (cooperativity coefficient n)” value ([1]; listed as unconcentrated rHb) was 2.27±0.10. For the same molecule, the Al-PC binding [2] was “no appreciable binding of Al-PC”.

For “apoHb: protein produced by removing heme from Hb; made via acidic ethanol tangential flow filtration”, the “loss of apoHb activity during long term storage” value ([3]; 4° C., −80° C., and lyophilized form) was “Virtually no loss of apoHb activity”, the “total protein and activity in solution during storage” value ([3]; 37° C., liquid) was “quickly lost total protein and activity in solution” and the “P50 and cooperativity coefficient after reconstitution into rHb” value ([3]; apoHb stored at 4° C. for one month, vs reconstituted right after production) was “did not show any significant difference”. The “effect of time on apoHb activity or total protein” value ([3]; lyophilized) was “did not show a significant effect of time on apoHb activity or total protein”, the “retention of total protein” value ([3]; one-week storage at 22° C.) was 80-90% and the “oxidative modifications (RP-HPLC)” value ([3]; stored at 4° C. or at 22° C.) was “show an additional β-chain peak (βox)”. The “effect of time on activity” value ([3]; stored at 4° C., unconcentrated) was “no significant differences were seen after day 10”, the “oxidative modifications (RP-HPLC)” value ([3]; stored at −80° C. or lyophilized for over a year) was “no oxidative modifications were observed” and the “effect of time on apoHb activity or total protein” value ([3]; both concentrations) was “no statistically significant effect of time on apoHb activity or total protein”. For the same molecule, the MAP (acellular human Hb; after acellular Hb 10% hypervolemic infusion) was “elevated MAP compared to baseline and pretreatment”, the FCD (acellular human Hb; after acellular Hb infusion) was “FCD decreased” and the HR (acellular human Hb; after acellular Hb infusion) was “statistically significant decrease in HR from baseline and pre-treatment”. For the same molecule, the MAP (PolyHb; after PolyHb exchange transfusion) was “significant increase in MAP”, the FCD (PolyHb; after PolyHb transfusion) was “FCD significantly decreased” and the “arteriole and venule diameter” value (PolyHb; after PolyHb transfusion) was “significant decrease in relative arteriole and venule diameter compared to the baseline”. For the same molecule, the “arteriole and venule fluid velocities and volumetric flow rates” value (PolyHb; after PolyHb transfusion) was “the volumetric flow rate in the arterioles and venules decreased”, the “MAP or HR” value (PolyHb; after administration, prior to transfusion of PolyHb) was “no significant effect on MAP or HR” and the FCD (PolyHb; after treatment, before PolyHb transfusion) was “significant increase in FCD”. The Al-PC binding [2] was “Al-PC bound to apoHb and prevented Al-PC aggregation”.

B1: Hpx: hemopexin, plasma heme scavenging protein (protein, UniProt P02790 24-462, looked up)
Hemopexin: TPLPPTSAHGNVAEGETKPDPDVTERCSDGWSFDATTLDDNGTMLFFKGEFVWKSHKWDRELISERWKNFPSPVDAAFRQGHNSVFLIKGDKVWVYPPEKKEKGYPKLLQDEFPGIPSPLDAAVECHRGECQAEGVLFFQGDREWFWDLATGTMKERSWPAVGNCSSALRWLGRYYCFQGNQFLRFDPVRGEVPPRYPRDVRDYFMPCPGRGHGHRNGTGHGNSTHHGPEYMRCSPHLVLSALTSDNHGATYAFSGTHYWRLDTSRDGWHSWPIAHQWPQGPSAVDAAFSWEEKLYLVQGTQVYVFLTKGGYTLVSGYPKRLEKEVGTPHGIILDSVDAAFICPGSSRLHIMAGRRLWWLDLKSGAQATWTELPWPHEKVDGALCMEKSLGPNSCSANGPGLYLIHGPNLYCYSDVEKLNAAKALPQPQNVTSLLGCTH
For B1, the RBC levels (β-thalassemic mice; Hpx treatment alone) is listed as “did not improve RBC levels” and the “iron levels in the liver” value (β-thalassemic mice; one month of Hpx treatment alone) is listed as “increased iron levels in the liver”.
